Reference: paper PMC7035337, “Binding of the periplakin linker requires vimentin acidic residues D176 and E187” (Communications Biology, 2020)
Numbering of substitutions follows the chain as printed. Names and notes keep the numbering of the source. Values joined by “and” are separate entries in the source; they are usually repeats but may differ in a detail not shown here. Identical values can stand only once.

T1: periplakin linker domain K1687E/R1689E (human, UniProt O60437 1646-1756, K1687E | R1689E)
T1 construct: human periplakin linker domain, residues K1646-K1756
T1 sequence (looked up): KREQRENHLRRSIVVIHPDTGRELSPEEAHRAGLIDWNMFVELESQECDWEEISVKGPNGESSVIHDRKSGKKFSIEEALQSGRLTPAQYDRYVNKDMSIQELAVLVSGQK

T2: periplakin linker domain R1737E/K1741E (human, UniProt O60437 1646-1756, R1737E | K1741E)
T2 construct: human periplakin linker domain, residues K1646-K1756
T2 sequence (looked up): T1 sequence (looked up) with E42K, E44R, R92E, K96E

T3: periplakin linker domain R1655E/R1656E (human, UniProt O60437 1646-1756, R1655E | R1656E)
T3 construct: human periplakin linker domain, residues K1646-K1756
T3 sequence (looked up): T1 sequence (looked up) with R10E, R11E, E42K, E44R

T4: periplakin linker domain R1713E/K1714E (human, UniProt O60437 1646-1756, R1713E | K1714E)
T4 construct: human periplakin linker domain, residues K1646-K1756
T4 sequence (looked up): T1 sequence (looked up) with E42K, E44R, R68E, K69E

T5: periplakin linker domain R1713E (human, UniProt O60437 1646-1756, R1713E)
T5 construct: human periplakin linker domain, residues K1646-K1756; also called Periplakin R1713E
T5 sequence (looked up): T1 sequence (looked up) with E42K, E44R, R68E

B1: periplakin linker domain, wild-type (residues K1646-K1756) (domain or fragment, human)
chain: T1 sequence (looked up) with E42K, E44R
notes: human periplakin linker domain, residues K1646-K1756; also called Periplakin Linker Wild-type
B2: periplakin linker domain (K1646–K1756), wild-type (domain or fragment, human, UniProt O60437 1646-1756, looked up)
chain: T1 sequence (looked up) with E42K, E44R
notes: periplakin linker domain, human, residues K1646-K1756; Vector pGEX-6P-1; also called wild-type periplakin linker; WT
B3: periplakin linker domain (K1646–K1756) R1655E/R1656E (domain or fragment, human, UniProt O60437 1646-1756, looked up)
chain: T1 sequence (looked up) with R10E, R11E, E42K, E44R
notes: periplakin linker domain, human, residues K1646-K1756
B4: periplakin linker domain (K1646–K1756) R1737E/K1741E (domain or fragment, human, UniProt O60437 1646-1756, looked up)
chain: T1 sequence (looked up) with E42K, E44R, R92E, K96E
notes: periplakin linker domain, human, residues K1646-K1756; also called control double mutant
B5: periplakin linker domain (K1646–K1756) R1713E (domain or fragment, human, UniProt O60437 1646-1756, looked up)
chain: T1 sequence (looked up) with E42K, E44R, R68E
notes: periplakin linker domain, human, residues K1646-K1756; also called periplakin mutant R1713E; periplakin linker mutant R1713E
B6: periplakin linker domain (K1646–K1756) K1687E/R1689E (domain or fragment, human, UniProt O60437 1646-1756, looked up)
chain: T1 sequence (looked up)
notes: as for B3
B7: vimentinROD, wild-type (residues T99-I249, coils 1A and 1B) (domain or fragment)
chain: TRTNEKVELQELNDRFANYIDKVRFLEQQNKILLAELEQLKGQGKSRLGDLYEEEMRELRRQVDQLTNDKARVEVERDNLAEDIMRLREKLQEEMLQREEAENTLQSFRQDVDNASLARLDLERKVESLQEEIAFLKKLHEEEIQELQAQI
modifications: NT647 fluorescent dye (Monolith NT His-Tag Labelling Kit RED-tris-NTA)
notes: human vimentin, residues T99-I249; Non-cleavable His tag
B8: periplakin linker domain (K1646–K1756) R1713E/K1714E (domain or fragment, human, UniProt O60437 1646-1756, looked up)
chain: T1 sequence (looked up) with E42K, E44R, R68E, K69E
notes: as for B3
B9: desmoplakin linker domain (Q2454–N2565) E2495K/C2497R (domain or fragment, human, UniProt P15924 2454-2565, looked up)
chain: QTSQKNTLRKRRVVIVDPETNKEMSVQEAYKKGLIDYETFKKLREQECEWEEITITGSDGSTRVVLVDRKTGSQYDIQDAIDKGLVDRKFFDQYRSGSLSLTQFADMISLKN
notes: desmoplakin linker domain, human, residues Q2454-N2565

Key:
Settings in all cases: both partners purified
[1] = biological target: B7; test: MST; as a1 but 10 mM NaCl: 50 nM NT647-labelled vimentinROD, periplakin linker titrated; 25 °C; one-ligand binding model
[2] = biological target: B7; test: MST; 50 nM NT647-labelled vimentinROD, linker titrated 780 nM to 800 μM; 150 mM NaCl, 20 mM HEPES pH 7.5, 0.015% Tween 20; 25 °C; MST-on time 5 s; one-ligand binding model; single experiments or merged data sets
[3] = biological target: B7; test: MST; as a1 but 50 mM NaCl: 50 nM NT647-labelled vimentinROD, periplakin linker titrated; 25 °C; one-ligand binding model
vimentinROD E180K = biological target: T6, vimentinROD E180K (human, UniProt P08670 99-249, E180K, NT647 fluorescent dye (Monolith NT His-Tag Labelling Kit RED-tris-NTA)); test: MST; 50 nM NT647-labelled vimentinROD, linker titrated 780 nM to 800 μM; 150 mM NaCl, 20 mM HEPES pH 7.5, 0.015% Tween 20; 25 °C; MST-on time 5 s; one-ligand binding model; single experiments or merged data sets
T6 construct: human vimentin, residues T99-I249

vimentinROD E172K = biological target: T7, vimentinROD E172K (human, UniProt P08670 99-249, E172K, NT647 fluorescent dye (Monolith NT His-Tag Labelling Kit RED-tris-NTA)); test: as above
T7 construct: human vimentin, residues T99-I249

[4] = biological target: T8, vimentin^ROD (residues T99–I249), wild-type (human, UniProt P08670 99-249, NT647 fluorescent dye (Monolith NT His-Tag Labelling Kit RED-tris-NTA)); test: MST; as the standard MST assay (50 nM labelled vimentin^ROD, linker titrated) but in 10 mM NaCl
T8 construct: vimentin, human, coils 1A and 1B of the central rod domain, residues T99-I249; Non-cleavable His tag; also called wild-type vimentin^ROD

[5] = biological target: T9, vimentin^ROD (residues T99–I249) E180K (human, UniProt P08670 99-249, E180K, NT647 fluorescent dye (Monolith NT His-Tag Labelling Kit RED-tris-NTA)); test: MST; 50 nM NT647-labelled vimentin^ROD, linker titrated 780 nM to 800 uM; 150 mM NaCl, 20 mM HEPES pH 7.5, 0.015% Tween 20; 25 C; one-site binding model
T9 construct: vimentin, human, coils 1A and 1B of the central rod domain, residues T99-I249

[6] = biological target: T10, vimentin^ROD (residues T99–I249) E172K (human, UniProt P08670 99-249, E172K, NT647 fluorescent dye (Monolith NT His-Tag Labelling Kit RED-tris-NTA)); test: as above
T10 construct: vimentin, human, coils 1A and 1B of the central rod domain, residues T99-I249

[7] = biological target: T8, vimentin^ROD (residues T99–I249), …; test: as above
[8] = biological target: T11, vimentin^ROD (residues T99–I249) D162K (human, UniProt P08670 99-249, D162K, NT647 fluorescent dye (Monolith NT His-Tag Labelling Kit RED-tris-NTA)); test: as above
T11 construct: vimentin, human, coils 1A and 1B of the central rod domain, residues T99-I249

[9] = biological target: T12, vimentin^ROD (residues T99–I249) E229K (human, UniProt P08670 99-249, E229K, NT647 fluorescent dye (Monolith NT His-Tag Labelling Kit RED-tris-NTA)); test: as above
T12 construct: vimentin, human, coils 1A and 1B of the central rod domain, residues T99-I249

[10] = biological target: T13, vimentin^ROD (residues T99–I249) D176K (human, UniProt P08670 99-249, D176K, NT647 fluorescent dye (Monolith NT His-Tag Labelling Kit RED-tris-NTA)); test: as above
T13 construct: vimentin, human, coils 1A and 1B of the central rod domain, residues T99-I249; also called D176K vimentin^ROD; vimentin mutant D176K

[11] = biological target: T1, periplakin linker domain K1687E/R1689E; test: MST; 50 nM NT647-labelled vimentinROD, linker titrated 780 nM to 800 μM; 150 mM NaCl, 20 mM HEPES pH 7.5, 0.015% Tween 20; 25 °C; MST-on time 5 s; one-ligand binding model; single experiments or merged data sets
[12] = biological target: T2, periplakin linker domain R1737E/K1741E; test: as above
[13] = biological target: T3, periplakin linker domain R1655E/R1656E; test: as above
[14] = biological target: T4, periplakin linker domain R1713E/K1714E; test: as above
[15] = biological target: T5, periplakin linker domain R1713E; test: as above

T8 sequence (P08670 99-249): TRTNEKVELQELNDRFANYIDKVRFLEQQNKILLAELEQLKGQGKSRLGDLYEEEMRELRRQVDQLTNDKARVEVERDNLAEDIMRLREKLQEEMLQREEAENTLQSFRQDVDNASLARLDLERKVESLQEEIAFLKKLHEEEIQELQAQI
T6 sequence (P08670 99-249 E180K): as the sequence (P08670 99-249) above, with E82K counted along it
T7 sequence (P08670 99-249 E172K): as the sequence (P08670 99-249) above, with E74K counted along it
T12 sequence (P08670 99-249 E229K): as the sequence (P08670 99-249) above, with E131K counted along it
T11 sequence (P08670 99-249 D162K): as the sequence (P08670 99-249) above, with D64K counted along it
T13 sequence (P08670 99-249 D176K): as the sequence (P08670 99-249) above, with D78K counted along it
T9 sequence (P08670 99-249 E180K): as the sequence (P08670 99-249) above, with E82K counted along it
T10 sequence (P08670 99-249 E172K): as the sequence (P08670 99-249) above, with E74K counted along it

Binder: B1
- Kd [1]: 31 µM and 32 µM and 30.2 µM
- Kd [2]: 59 µM and 66 µM and 70 µM and 85 µM
- Kd [3]: 59 µM and 69 µM and 71 µM and 66 µM
- Kd (vimentinROD E180K): 8 µM and 4 µM and 3 µM and 5.7 µM
- Kd (vimentinROD E172K): 26 µM and 24 µM and 27 µM and 29 µM

Binder: B2
- Kd [4]: 31 ± 2 µM
- Kd [5]: 6 ± 2 µM
- Kd [6]: 27 ± 4 µM
- Kd [7]: 70.5 ± 3.8 µM
- Kd [8]: 68 ± 4 µM
- Kd [9]: 16 ± 2 µM

Binder: B3
- Kd [7]: 380 ± 51 µM

Binder: B4
- Kd [7]: 48 ± 11 µM

Binder: B5
- Kd [7]: 200 ± 29 µM
- Kd [10]: 23 ± 4 µM

Binder: B6
- Kd [7]: 300 ± 54 µM

Binder: B7
- Kd [11]: 312 µM and 306 µM and 273 µM
- Kd [12]: 57 µM and 43 µM and 29 µM and 47.9 µM
- Kd [13]: 351 µM and 382 µM and 444 µM
- Kd [14]: 143 µM and 145 µM and 123 µM
- Kd [15]: 210 µM and 160 µM and 240 µM

Binder: B8
- Kd [7]: 135 ± 30 µM

Binder: B9
- Kd [7]: 600 ± 70 µM
